Test [1] concerns the target T1, rat calcitonin receptor (rat, UniProt P32214 25-516).
T1 construct: whole, on cells; Membranes prepared from transiently transfected BHK tk'ts 13 cells (Assay VIII); also called rCTR; rCT
T1 sequence (looked up): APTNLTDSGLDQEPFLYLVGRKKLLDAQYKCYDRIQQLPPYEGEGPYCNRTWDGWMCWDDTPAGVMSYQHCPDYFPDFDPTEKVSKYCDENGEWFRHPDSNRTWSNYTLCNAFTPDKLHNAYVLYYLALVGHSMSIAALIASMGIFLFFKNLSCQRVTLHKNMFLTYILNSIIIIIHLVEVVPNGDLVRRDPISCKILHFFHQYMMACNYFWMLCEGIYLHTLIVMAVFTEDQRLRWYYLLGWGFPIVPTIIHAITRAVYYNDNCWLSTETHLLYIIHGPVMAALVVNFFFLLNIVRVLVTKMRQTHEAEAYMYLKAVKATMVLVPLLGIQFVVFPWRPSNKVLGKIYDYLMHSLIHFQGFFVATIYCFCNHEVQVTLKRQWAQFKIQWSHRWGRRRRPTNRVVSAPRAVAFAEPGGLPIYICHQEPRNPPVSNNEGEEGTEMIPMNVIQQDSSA
As to the kind of experiment: SPA competition vs 125I-calcitonin, membranes of BHK cells with rat calcitonin receptor (Assay VIII).

Test [2] has as its target T2, human calcitonin receptor (human, UniProt P30988 25-474).
T2 construct: whole, on cells; Membranes prepared from a stably transfected BHK cell line (Assay VII); also called hCTR; hCT
T2 sequence (looked up): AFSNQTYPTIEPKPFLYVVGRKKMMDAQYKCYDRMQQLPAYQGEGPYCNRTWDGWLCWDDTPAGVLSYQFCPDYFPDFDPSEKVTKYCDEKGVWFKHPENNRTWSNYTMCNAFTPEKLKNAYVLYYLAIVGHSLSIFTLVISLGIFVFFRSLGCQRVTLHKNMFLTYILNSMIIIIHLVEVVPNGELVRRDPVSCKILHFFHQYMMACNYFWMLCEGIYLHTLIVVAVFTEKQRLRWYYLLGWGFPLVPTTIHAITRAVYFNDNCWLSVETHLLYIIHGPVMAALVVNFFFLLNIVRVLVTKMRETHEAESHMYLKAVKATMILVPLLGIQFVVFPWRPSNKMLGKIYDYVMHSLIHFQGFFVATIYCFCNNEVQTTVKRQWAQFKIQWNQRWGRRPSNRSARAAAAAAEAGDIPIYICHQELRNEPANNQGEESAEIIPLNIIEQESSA
Description: ratio of binding IC50s: human calcitonin receptor / human amylin receptor (reference). The essentials: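 Competition binding by SPA with cell membranes (35 ng/μL) and SPA beads in 50 mM Hepes pH 7.4 with 1 mM CaCl2, 5 mM MgCl2, 0.1% OA and 0.02% Tween20. Incubated 120 min at 25 °C with shaking, then counted.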

For test [3], the target named is T3, rat amylin receptor (rat calcitonin receptor + rat RAMP 3) (rat, UniProt P32214 25-516; Q9JJ73 23-147).
T3 construct: whole, on cells; Membranes prepared from transiently transfected BHK tk'ts 13 cells (Assay VI); also called rAmylin-R; rAmylin
T3 sequence (looked up) 1: T1 sequence (looked up)
T3 sequence (looked up) 2: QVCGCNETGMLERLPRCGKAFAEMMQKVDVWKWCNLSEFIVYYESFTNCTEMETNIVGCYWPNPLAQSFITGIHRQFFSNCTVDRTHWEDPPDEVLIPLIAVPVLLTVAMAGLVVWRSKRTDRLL
As to the kind of experiment: SPA competition vs 125I-rat amylin, membranes of BHK cells with rat calcitonin receptor + rat RAMP3 (Assay VI).

In test [4] the target is T1, rat calcitonin receptor. Description: ratio of binding IC50s: rat calcitonin receptor / rat amylin receptor (reference).

Numbered stars: 1 amine (or outer) side, 2 acyl side, 3 side chain; on linkers, the order of the positions; unused ones are H or OH. Bridge positions count the residues as written; N and C are the ends. Side chains are listed from the residue outwards. Ends that are not written are not given here. * marks the point of attachment. C20 diacid = O=C(O)CCCCCCCCCCCCCCCCCCC(=O)*; γGlu = O=C(O)[C@H](CCC(=O)[*:2])N[*:1]; AEEA = NCCOCCOCC(=O)O

B1: N^ε1-[2-[2-[2-[[(4S)-4-carboxy-4-(19-carboxynonadecanoylamino)butanoyl]amino]ethoxy]ethoxy]acetyl]-[His14,Arg17,Pro21,Pro27,His34]-h-amylin (peptide)
peptide: K([AEEA-γGlu-C20 diacid])CNTATCATQRLAHFLRHSSPNFGAIPSSTNVGHNTY-NH2
modifications: disulfide 2-7; N-terminus assumed
SMILES: CC[C@H](C)[C@H](NC(=O)[C@H](C)NC(=O)CNC(=O)[C@H](Cc1ccccc1)NC(=O)[C@H](CC(N)=O)NC(=O)[C@@H]1CCCN1C(=O)[C@H](CO)NC(=O)[C@H](CO)NC(=O)[C@H](Cc1c[nH]cn1)NC(=O)[C@H](CCCNC(=N)N)NC(=O)[C@H](CC(C)C)NC(=O)[C@H](Cc1ccccc1)NC(=O)[C@H](Cc1c[nH]cn1)NC(=O)[C@H](C)NC(=O)[C@H](CC(C)C)NC(=O)[C@H](CCCNC(=N)N)NC(=O)[C@H](CCC(N)=O)NC(=O)[C@@H](NC(=O)[C@H](C)NC(=O)[C@@H]1CSSC[C@H](NC(=O)[C@@H](N)CCCCNC(=O)COCCOCCNC(=O)CC[C@H](NC(=O)CCCCCCCCCCCCCCCCCCC(=O)O)C(=O)O)C(=O)N[C@@H](CC(N)=O)C(=O)N[C@@H]([C@@H](C)O)C(=O)N[C@@H](C)C(=O)N[C@@H]([C@@H](C)O)C(=O)N1)[C@@H](C)O)C(=O)N1CCC[C@H]1C(=O)N[C@@H](CO)C(=O)N[C@@H](CO)C(=O)N[C@H](C(=O)N[C@@H](CC(N)=O)C(=O)N[C@H](C(=O)NCC(=O)N[C@@H](Cc1c[nH]cn1)C(=O)N[C@@H](CC(N)=O)C(=O)N[C@H](C(=O)N[C@@H](Cc1ccc(O)cc1)C(N)=O)[C@@H](C)O)C(C)C)[C@@H](C)O
notes: Analogue of human amylin; also called compound 80
As a reminder, the IC50 is the concentration that inhibits the measured activity by half. Take B1: the concentration for half-maximal inhibition (IC50) in test [1] stood at 60.4 nM; in test [3], 1.67 nM. Further, the “Ratio hCT/hAmylin binding” value in test [2] came to 68.1. For the same molecule, the “Ratio rCT/rAmylin binding” value in test [4] amounted to 36.2.

B2: N^ε1-[2-[2-[2-[[(4S)-4-carboxy-4-(19-carboxynonadecanoylamino)butanoyl]amino]ethoxy]ethoxy]acetyl]-[Ser14,Arg17,Pro21,Pro27,Pro31]-h-amylin (peptide)
peptide: K([AEEA-γGlu-C20 diacid])CNTATCATQRLASFLRHSSPNFGAIPSSTPVGSNTY-NH2
modifications: disulfide 2-7; N-terminus assumed
SMILES: CC[C@H](C)[C@H](NC(=O)[C@H](C)NC(=O)CNC(=O)[C@H](Cc1ccccc1)NC(=O)[C@H](CC(N)=O)NC(=O)[C@@H]1CCCN1C(=O)[C@H](CO)NC(=O)[C@H](CO)NC(=O)[C@H](Cc1c[nH]cn1)NC(=O)[C@H](CCCNC(=N)N)NC(=O)[C@H](CC(C)C)NC(=O)[C@H](Cc1ccccc1)NC(=O)[C@H](CO)NC(=O)[C@H](C)NC(=O)[C@H](CC(C)C)NC(=O)[C@H](CCCNC(=N)N)NC(=O)[C@H](CCC(N)=O)NC(=O)[C@@H](NC(=O)[C@H](C)NC(=O)[C@@H]1CSSC[C@H](NC(=O)[C@@H](N)CCCCNC(=O)COCCOCCNC(=O)CC[C@H](NC(=O)CCCCCCCCCCCCCCCCCCC(=O)O)C(=O)O)C(=O)N[C@@H](CC(N)=O)C(=O)N[C@@H]([C@@H](C)O)C(=O)N[C@@H](C)C(=O)N[C@@H]([C@@H](C)O)C(=O)N1)[C@@H](C)O)C(=O)N1CCC[C@H]1C(=O)N[C@@H](CO)C(=O)N[C@@H](CO)C(=O)N[C@H](C(=O)N1CCC[C@H]1C(=O)N[C@H](C(=O)NCC(=O)N[C@@H](CO)C(=O)N[C@@H](CC(N)=O)C(=O)N[C@H](C(=O)N[C@@H](Cc1ccc(O)cc1)C(N)=O)[C@@H](C)O)C(C)C)[C@@H](C)O
notes: Analogue of human amylin; also called compound 73
With B2, the IC50 was 50.3 nM in test [1] and 0.283 nM in test [3]. In addition, in test [2], the “Ratio hCT/hAmylin binding” value stood at 51.7. In test [4], the “Ratio rCT/rAmylin binding” value was found to be 178.

B3: N^ε1-[2-[2-[2-[[(4S)-4-carboxy-4-(19-carboxynonadecanoylamino)butanoyl]amino]ethoxy]ethoxy]acetyl]-[His14,Arg17,Pro21,Pro27,Pro31]-h-amylin (peptide)
peptide: K([AEEA-γGlu-C20 diacid])CNTATCATQRLAHFLRHSSPNFGAIPSSTPVGSNTY-NH2
modifications: disulfide 2-7; N-terminus assumed
SMILES: CC[C@H](C)[C@H](NC(=O)[C@H](C)NC(=O)CNC(=O)[C@H](Cc1ccccc1)NC(=O)[C@H](CC(N)=O)NC(=O)[C@@H]1CCCN1C(=O)[C@H](CO)NC(=O)[C@H](CO)NC(=O)[C@H](Cc1c[nH]cn1)NC(=O)[C@H](CCCNC(=N)N)NC(=O)[C@H](CC(C)C)NC(=O)[C@H](Cc1ccccc1)NC(=O)[C@H](Cc1c[nH]cn1)NC(=O)[C@H](C)NC(=O)[C@H](CC(C)C)NC(=O)[C@H](CCCNC(=N)N)NC(=O)[C@H](CCC(N)=O)NC(=O)[C@@H](NC(=O)[C@H](C)NC(=O)[C@@H]1CSSC[C@H](NC(=O)[C@@H](N)CCCCNC(=O)COCCOCCNC(=O)CC[C@H](NC(=O)CCCCCCCCCCCCCCCCCCC(=O)O)C(=O)O)C(=O)N[C@@H](CC(N)=O)C(=O)N[C@@H]([C@@H](C)O)C(=O)N[C@@H](C)C(=O)N[C@@H]([C@@H](C)O)C(=O)N1)[C@@H](C)O)C(=O)N1CCC[C@H]1C(=O)N[C@@H](CO)C(=O)N[C@@H](CO)C(=O)N[C@H](C(=O)N1CCC[C@H]1C(=O)N[C@H](C(=O)NCC(=O)N[C@@H](CO)C(=O)N[C@@H](CC(N)=O)C(=O)N[C@H](C(=O)N[C@@H](Cc1ccc(O)cc1)C(N)=O)[C@@H](C)O)C(C)C)[C@@H](C)O
notes: Analogue of human amylin; also called compound 61
As to B3, the IC50 was found to be 33.4 nM in test [1] and 0.842 nM in test [3]. Also, in test [2], the “Ratio hCT/hAmylin binding” value was found to be 66.7. Besides, in test [4], the “Ratio rCT/rAmylin binding” value stood at 39.7.

B4: N^ε1-[2-[2-[2-[[(4S)-4-carboxy-4-(19-carboxynonadecanoylamino)butanoyl]amino]ethoxy]ethoxy]acetyl]-[His14,Arg17,Pro21,Pro27,Pro34]-h-amylin (peptide)
peptide: K([AEEA-γGlu-C20 diacid])CNTATCATQRLAHFLRHSSPNFGAIPSSTNVGPNTY-NH2
modifications: disulfide 2-7; N-terminus assumed
SMILES: CC[C@H](C)[C@H](NC(=O)[C@H](C)NC(=O)CNC(=O)[C@H](Cc1ccccc1)NC(=O)[C@H](CC(N)=O)NC(=O)[C@@H]1CCCN1C(=O)[C@H](CO)NC(=O)[C@H](CO)NC(=O)[C@H](Cc1c[nH]cn1)NC(=O)[C@H](CCCNC(=N)N)NC(=O)[C@H](CC(C)C)NC(=O)[C@H](Cc1ccccc1)NC(=O)[C@H](Cc1c[nH]cn1)NC(=O)[C@H](C)NC(=O)[C@H](CC(C)C)NC(=O)[C@H](CCCNC(=N)N)NC(=O)[C@H](CCC(N)=O)NC(=O)[C@@H](NC(=O)[C@H](C)NC(=O)[C@@H]1CSSC[C@H](NC(=O)[C@@H](N)CCCCNC(=O)COCCOCCNC(=O)CC[C@H](NC(=O)CCCCCCCCCCCCCCCCCCC(=O)O)C(=O)O)C(=O)N[C@@H](CC(N)=O)C(=O)N[C@@H]([C@@H](C)O)C(=O)N[C@@H](C)C(=O)N[C@@H]([C@@H](C)O)C(=O)N1)[C@@H](C)O)C(=O)N1CCC[C@H]1C(=O)N[C@@H](CO)C(=O)N[C@@H](CO)C(=O)N[C@H](C(=O)N[C@@H](CC(N)=O)C(=O)N[C@H](C(=O)NCC(=O)N1CCC[C@H]1C(=O)N[C@@H](CC(N)=O)C(=O)N[C@H](C(=O)N[C@@H](Cc1ccc(O)cc1)C(N)=O)[C@@H](C)O)C(C)C)[C@@H](C)O
notes: Analogue of human amylin; also called compound 68
Turning to B4, the values for the IC50 in test [1] and in test [3] were 28.5 nM and 0.234 nM, respectively. Moreover, the “Ratio hCT/hAmylin binding” value in test [2] stood at 64.4. The “Ratio rCT/rAmylin binding” value in test [4] was 122.

B5: N^ε1-[2-[2-[2-[[(4S)-4-carboxy-4-(19-carboxynonadecanoylamino)butanoyl]amino]ethoxy]ethoxy]acetyl]-[Lys14,Arg17,Pro21,Pro27,Pro31]-h-amylin (peptide)
peptide: K([AEEA-γGlu-C20 diacid])CNTATCATQRLAKFLRHSSPNFGAIPSSTPVGSNTY-NH2
modifications: disulfide 2-7; N-terminus assumed
SMILES: CC[C@H](C)[C@H](NC(=O)[C@H](C)NC(=O)CNC(=O)[C@H](Cc1ccccc1)NC(=O)[C@H](CC(N)=O)NC(=O)[C@@H]1CCCN1C(=O)[C@H](CO)NC(=O)[C@H](CO)NC(=O)[C@H](Cc1c[nH]cn1)NC(=O)[C@H](CCCNC(=N)N)NC(=O)[C@H](CC(C)C)NC(=O)[C@H](Cc1ccccc1)NC(=O)[C@H](CCCCN)NC(=O)[C@H](C)NC(=O)[C@H](CC(C)C)NC(=O)[C@H](CCCNC(=N)N)NC(=O)[C@H](CCC(N)=O)NC(=O)[C@@H](NC(=O)[C@H](C)NC(=O)[C@@H]1CSSC[C@H](NC(=O)[C@@H](N)CCCCNC(=O)COCCOCCNC(=O)CC[C@H](NC(=O)CCCCCCCCCCCCCCCCCCC(=O)O)C(=O)O)C(=O)N[C@@H](CC(N)=O)C(=O)N[C@@H]([C@@H](C)O)C(=O)N[C@@H](C)C(=O)N[C@@H]([C@@H](C)O)C(=O)N1)[C@@H](C)O)C(=O)N1CCC[C@H]1C(=O)N[C@@H](CO)C(=O)N[C@@H](CO)C(=O)N[C@H](C(=O)N1CCC[C@H]1C(=O)N[C@H](C(=O)NCC(=O)N[C@@H](CO)C(=O)N[C@@H](CC(N)=O)C(=O)N[C@H](C(=O)N[C@@H](Cc1ccc(O)cc1)C(N)=O)[C@@H](C)O)C(C)C)[C@@H](C)O
notes: Analogue of human amylin; also called compound 74
With B5, the IC50 in test [1] was 109 nM; in test [3], 4.89 nM. In test [2], the “Ratio hCT/hAmylin binding” value amounted to 101. Also, in test [4], the “Ratio rCT/rAmylin binding” value is 22.3.

For the origin of these results see patent US20140087995A1 (published 2014).
